In patent publication US20260224723A1 (DUALITY BIOLOGICS SUZHOU, published 2026):
One block for each binder: values may come before it.

Key:
[1] = molecular target: T1, Cynomolgus monkey full-length B7H3 on transfected FlpinCHO cells (cynomolgus monkey); assay: FACS on cynomolgus monkey B7H3-transfected FlpinCHO cell pool
T1 construct: whole, on cells; also called W3XX088-FlpinCHO.cProl.pool
Protocol: FACS was used to detect the binding of antibodies to cynomolgus monkey B7H3. FlpinCHO cells were transfected with cynomolgus monkey B7H3 (W3XX088-FlpinCHO.cProl.pool) (1×10⁵ cells/well), and the transfected cells were incubated with various concentrations of antibodies (3.16-fold serially diluted with 1×DPBS/1% BSA from 50 nM to 0.0005 nM) in a volume of 100 μL/well in a refrigerator set to 4° C. for 1 h. Anti-human B7H3 reference antibody enoblituzumab (MacroGeneics) was used as a positive control. Human IgG1 isotype antibody was used as a negative control. After washing the cells with 1×DPBS/1% BSA, Alexa 647 goat anti-human antibody (diluted in a 1:500 ratio in 1×DPBS/1% BSA) was added. The cells were incubated in a refrigerator set to 4° C. for 0.5 h in the dark. The mean fluorescence intensity (MFI) of the cells was measured by a flow cytometry and analyzed by FlowJo. EC₅₀ values were calculated by four-parameter non-linear regression analysis using GraphPad Prism 7 software.

[2] = molecular target: T2, Human B7-H3(4Ig), His Tag (human, UniProt Q5ZPR3 29-461); assay: ELISA, plate coated with 2 µg/mL recombinant human B7-H3 (4Ig), serially diluted antibody, HRP anti-human secondary antibody, OD450
T2 construct: also called recombinant human B7H3 antigen; human B7-H3 protein; not shown: His tag
T2 sequence (looked up): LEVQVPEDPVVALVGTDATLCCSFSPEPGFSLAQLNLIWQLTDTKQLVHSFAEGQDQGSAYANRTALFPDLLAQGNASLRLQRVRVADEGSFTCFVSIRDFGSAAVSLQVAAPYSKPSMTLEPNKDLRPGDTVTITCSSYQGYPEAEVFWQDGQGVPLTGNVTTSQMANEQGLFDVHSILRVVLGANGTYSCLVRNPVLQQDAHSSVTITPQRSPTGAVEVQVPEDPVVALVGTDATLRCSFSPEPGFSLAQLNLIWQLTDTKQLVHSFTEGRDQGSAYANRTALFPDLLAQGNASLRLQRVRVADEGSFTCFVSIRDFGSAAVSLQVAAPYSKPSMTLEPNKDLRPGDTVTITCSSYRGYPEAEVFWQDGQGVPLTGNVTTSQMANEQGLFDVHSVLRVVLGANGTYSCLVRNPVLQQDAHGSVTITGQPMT
Protocol: A 96-well ELISA plate was coated with 2 μg/mL recombinant human B7H3 antigen (see the table above) at 30 μL/well and kept at 4° C. overnight. The following day, the well plate was washed 3 times with PBST and then blocked with 5% skim milk for 2 h. […] The plate was then washed 3 times with PBST, and an HRP-labeled anti-human secondary antibody diluted in a 1:5000 ratio was then added at 100 μL/well and incubated for 1 h. After the incubation was complete, the plate was washed six times with PBST, and TMB (SurModics, TMBS-1000-01) was added for color development. Based on the results of the color development, the reaction was stopped by adding 2M HCl, and the plate was read by a microplate reader (Molecular Devices, SpecterMax 190) at OD450.

[3] = molecular target: T3, Human BTNL2 protein, His Tag (human, UniProt Q9UIR0-1 24-455, limits assumed); assay: ELISA, protein immobilized on plate, serially diluted antibody
T3 construct: Bought protein; also called AtaGenix ATMP02212HU; not shown: His tag
T3 sequence (looked up): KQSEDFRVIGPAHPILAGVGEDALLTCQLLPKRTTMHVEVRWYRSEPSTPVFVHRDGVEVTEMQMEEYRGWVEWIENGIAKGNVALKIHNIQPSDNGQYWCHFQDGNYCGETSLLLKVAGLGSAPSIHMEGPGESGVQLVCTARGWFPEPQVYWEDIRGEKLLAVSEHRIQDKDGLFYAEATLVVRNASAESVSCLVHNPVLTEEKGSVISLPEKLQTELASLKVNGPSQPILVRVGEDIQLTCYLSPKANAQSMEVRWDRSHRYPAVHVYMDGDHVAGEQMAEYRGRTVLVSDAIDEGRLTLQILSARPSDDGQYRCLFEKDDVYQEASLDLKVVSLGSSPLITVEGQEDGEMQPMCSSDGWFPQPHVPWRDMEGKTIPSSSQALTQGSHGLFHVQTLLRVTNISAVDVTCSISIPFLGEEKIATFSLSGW
Protocol: (§1) Human PD-L1 protein (see the table above), human B7-H2 protein, human B7-H3 protein, human B7-H4 protein, human B7-H5 protein, human B7-H6 protein, human B7-1 protein, human B7-2 protein, human PD-L2 protein, human B7-H7 protein, and human BTNL2 protein were separately immobilized on 96-well plates by incubation at 4° C. overnight. The 96-well plates were then blocked by incubation with 1% BSA in PBS at 37° C. for 1 h. After blocking, the 96-well plates were washed 3 times with PBST (PBS containing 0.05% Tween 20). […] After incubation, the 96-well plates were washed 3 times with PBST, incubated with a secondary antibody (see the table above) in binding buffer at 37° C. for 1 h, and then washed again. TMB was added for color development, and the reaction was stopped by 1 M H₂SO₄.

[4] = molecular target: T3, Human BTNL2 protein, His Tag; assay: ELISA, protein immobilized on plate, serially diluted antibody-drug conjugate
Protocol: as §1

EC50 [1]: 5.25 nM
B1: W301088-1.145.16-xIgG1KV320 (antibody, V domains shown)
VH: DVQLQESGPGLVKPSQSLSLTCTVTDYSITGDYAWNWIRQFPGNKLEWMGYISYSGSTSYNPSLQSRISITRDTSKNQFFLQLNSVTSEDTATYFCARSLGRRWYFVVWGAGTTVTVSA
VL: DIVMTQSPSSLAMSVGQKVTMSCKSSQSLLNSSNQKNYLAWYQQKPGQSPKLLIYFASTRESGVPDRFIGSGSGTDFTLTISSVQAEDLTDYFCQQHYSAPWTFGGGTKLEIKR

EC50 [1]: 4.68 nM
EC50 (read off the curve) [2]: ~0.1 µg/mL
binding result [3]: no binding
B2: W301088-1.145.16-z3-p1-uIgG1KV320 (antibody, V domains shown)
VH: QVQLQESGPGLVKPSQTLSLTCTVTDYSITGDYAWNWIRQHPGKGLEWIGYISYSGSTSYNPSLQSRVTISRDTSKNQFSLKLSSVTAADTAVYFCARSLGRRWYFVVWGQGTTVTVSS
VL: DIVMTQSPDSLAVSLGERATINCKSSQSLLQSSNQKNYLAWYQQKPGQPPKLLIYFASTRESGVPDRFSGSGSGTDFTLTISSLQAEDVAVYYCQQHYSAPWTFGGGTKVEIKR
notes: Humanized, PTM-removed (VL N027dQ) antibody; human IgG1 LALA, kappa; also called WBP301088; W301088-z3-p1

binding result [4]: no binding
B3: Antibody-drug conjugate WBP301088-X2 (DAR6) (antibody, human IgG1, kappa, L234A L235A, V domains shown)
VH: B2 VH
VL: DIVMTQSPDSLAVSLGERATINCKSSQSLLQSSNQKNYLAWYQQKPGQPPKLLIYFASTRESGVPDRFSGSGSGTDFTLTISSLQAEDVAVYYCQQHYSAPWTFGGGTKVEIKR
modifications: linker-payload X2 conjugated after TCEP reduction; drug loading (DAR) 5.68 per antibody; sites not stated

EC50 [1]: 9.58 nM
B4: Enoblituzumab (MacroGenics) (antibody, V domains shown)
VH: EVQLVESGGGLVQPGGSLRLSCAASGFTFSSFGMHWVRQAPGKGLEWVAYISSDSSAIYYADTVKGRFTISRDNAKNSLYLQMNSLRDEDTAVYYCGRGRENIYYGSRLDYWGQGTTVTVSS
VL: DIQLTQSPSFLSASVGDRVTITCKASQNVDTNVAWYQQKPGKAPKALIYSASYRYSGVPSRFSGSGSGTDFTLTISSLQPEDFATYYCQQYNNYPFTFGQGTKLEIKR
